# The RNAGym collection of RNA variant scans (doi:10.1073/pnas.2313332121)
# B1: TPR t1 (parent)
# chain: GACCAAUCUGCCCUCAGAGCUCGAGAACAUCUUCGGAUGCAGAGGAGGCAGGCUUCGGUGGCGCGAUAGCGCCAACGUCCUCAACCUCCAAUGCAUCCCACCACAUGAUGAUGCCUGAAGAGCCUUGGUUUUUUG
# Variants of: B1
# Assay: polymerase ribozyme fitness, log enrichment relative to wild type (log ratio); higher = more active; in vitro selection for triplet polymerase activity
# Procedure, shortened: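 Mutant libraries for each subunit of a heterodimeric triplet polymerase ribozyme were made by PCR and then transcribed. Each library underwent one round of in vitro selection in triplicate: annealing with a biotinylated primer, the partner subunit and triplets, frozen incubation at −7 °C, gel excision of extended constructs, streptavidin-bead capture and RT-PCR. Input and output libraries were Illumina-sequenced, and only genotypes with ≥10 input reads and ≥1 read per output were kept. Fitness is the logarithm, base 2, of genotype enrichment over wild-type enrichment, computed from inverse-variance-weighted replicate averages.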
row,Variant,polymerase ribozyme fitness (log ratio)
1,A6G U9C,0.178
2,G48C C72A C79G G127C,-3.9
3,A16U G61A,-0.972
4,G19C C72U A91U G113A,-0.96
5,C13G U33C C72U U81A C101G G110U U132A,-6.08
6,G93C G120A,1.58
7,A18G C102G G110U,-5.75
8,C11G C40U C49U U55G U130A U132A,-1.35
9,C20A C64G U92C A121C,-6.25
10,G36U U78C C89G C101A,-4.13
11,C72G C86G U109A C114A G120C,-5.75
12,C79A U92C G110C U125G,-5.23
13,G93U C98U,-2.33
14,C72G A121G,0.881
15,G17C C28A G63A G120C C123G,-6.85
16,C4G G61A U78A A83G C124U U125G,-1.07
17,C72A G77A,-0.135
18,G45U U55C G61U,-1.09
19,G47C A111C A118C,-2.36
20,C4U C56G A111U,-2.42
21,C8G U54G C115A,2.13

row,Variant,polymerase ribozyme fitness (log ratio)
1,C34A C56A,-3.11
2,C4U C15U C72G C99U G120A,-4.79
3,C3U C22A G36U G71C A84U C123A,-5.28
4,G57U G71U U87G,-0.217
5,A6G A29G C72G C82G C89A G120C,-4.07
6,C88U A90G C99U,-2.84
7,U87A C97U C98U G120A,-2.92
8,C13U C22U C86U,-4.45
9,A6U A46U C72A U96A G120A G128A,-2.92
10,C22G A37U A41C C53U,-3.91
11,G17U A83G,-2.64
12,A74C,-0.272
13,C12U C97A,-3.91
14,C15U G23U G47A C49U C62U G65A A111C,-6.66
15,G71C C82A A100U G120U,-1.87
16,C4G C8G A50U G113C C115U,-5.07
17,U7G C12A U32A C73U G113A G120U,-4.58
18,C76U A91G,-2.17
19,U87A G117C,-3.81
20,G135C,0.446
21,A50C C72G,-0.555

row,Variant,polymerase ribozyme fitness (log ratio)
1,C40G C56A C79G C101U G110A,-6.02
2,G44U G45A G122A,-3.13
3,C8G C31G C82A C124U,-6.38
4,C40A G120U,-0.939
5,U9C C20G C101U G113U,-0.203
6,C3U C40U C62U A75U G93C U96G,-3.29
7,G39U A91U U126G G128U,-3.6
8,C11G G60C,-0.354
9,C56U U112A,1.66
10,G63C G117U,-2.64
11,A16U C56G G63U C101U,-4.93
12,U30C C97G A108U U112A C124G,-7.16
13,U32G G35A C98A C99U U109A,-6.04
14,G47A C49A G60C G128C,-4.7
15,G10A C82A C102U,-1.68
16,A46U G113A,-1.78
17,C88A U112A,-0.232
18,C8G A50G,0.932
19,G58U A111C,-0.00673
20,C11G A50G C97G,-2.97
21,G47U G135U,-2.02

row,Variant,polymerase ribozyme fitness (log ratio)
1,A6C G69U C76G C85G G120U,-1.75
2,C56U U87C,0.555
3,A5C C72A C88A,-1.74
4,A2C C4U G36U C104U,-2.28
5,C20A G61C U133G,-4.9
6,C8G C22G U125G U131G,-6
7,C49G G77U A95G,-1.23
8,A26G G63U A95U C99U,-5.64
9,C11G C114U,-0.754
10,G71A C104A U129A,-4.5
11,G39C G45C C64U C82A C85G,-5.8
12,G39A G61U A100C C123A,-1.14
13,C80A G135U,-3.76
14,C8U A46G C56G,-0.511
15,C12G C15A G39U A41G C49G,-4.44
16,A43G C72U,-0.99
17,G77U C89A U109A,-6.3
18,C13G G44A G63U G120U C123G,-0.471
19,U7G C20U A27U G47C G113A,-4.53
20,A5U A27G G60U,-4.01
